Laboratory results: article doi:10.1101/2023.03.07.531120 (bioRxiv, 2023)
Where no end group is shown, it is not given here. The star is where a group is joined. FITC = O=C1OC2(c3ccc(O)cc3Oc3cc(O)ccc32)c2ccc(NC(=S)*)cc21; Oleoyl = CCCCCCCC/C=C\CCCCCCCC(=O)*

Biological target: T1, AP2 μ2 subunit (in the mouse AP2 core) (mouse, UniProt P84091 1-435)
T1 sequence: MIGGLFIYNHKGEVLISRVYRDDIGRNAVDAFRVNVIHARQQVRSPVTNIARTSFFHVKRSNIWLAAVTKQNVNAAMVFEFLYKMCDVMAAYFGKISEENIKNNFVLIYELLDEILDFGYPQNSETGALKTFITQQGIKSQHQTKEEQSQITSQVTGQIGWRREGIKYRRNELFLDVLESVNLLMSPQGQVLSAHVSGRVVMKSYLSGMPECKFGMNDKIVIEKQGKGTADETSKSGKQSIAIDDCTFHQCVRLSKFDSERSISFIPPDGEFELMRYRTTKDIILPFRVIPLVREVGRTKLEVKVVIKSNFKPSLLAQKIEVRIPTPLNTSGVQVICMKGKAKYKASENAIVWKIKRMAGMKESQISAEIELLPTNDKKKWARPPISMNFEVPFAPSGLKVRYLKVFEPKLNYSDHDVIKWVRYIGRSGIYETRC
Assay: cryo-EM structure

binding result: binds
B1: Lipidated YxxΦ-cargo peptide of Tgn38 (Oleic acid-S{Lys(FITC)}KVTRRPKASDYQRL) (peptide)
peptide: Oleoyl-SK(FITC)KVTRRPKASDYQRL
